According to patent US20190300590A1 (PROTAGONIST THERAPEUTICS, published 2019):
Read-outs that look alike come from different tables or passages of the source. *1 amine or outer side, *2 acyl side, *3 side chain or, on linkers, in order; H or OH if unused. Bridges are numbered along the chain shown (N, C = ends). Primed or numbered codes have the meaning given here. [ ]: non-standard residue; d: D form. Phe(4-OMe)(3) = O-methyl-L-tyrosine (4-methoxy-L-phenylalanine), COc1ccc(C[C@H](N[*:1])C(=O)[*:2])cc1; Phe(3,4-(OMe)2) = COc1ccc(C[C@H](N)C(=O)O)cc1OC; Tyr(3-tBu) = CC(C)(C)c1cc(C[C@H](N)C(=O)O)ccc1O; 1Nal = N[C@@H](Cc1cccc2ccccc12)C(=O)O; 2Nal = N[C@@H](Cc1ccc2ccccc2c1)C(=O)O; AEF = NCCOc1ccc(C[C@H](N)C(=O)O)cc1; Cit = NC(=O)NCCC[C@H](N)C(=O)O; αMeL = CC(C)C[C@](C)(N)C(=O)O; αMeK = C[C@](N)(CCCCN)C(=O)O; αMeV = CC(C)[C@](C)(N)C(=O)O; Abu = CC[C@H](N)C(=O)O; AEA = NCCOCC(=O)O; βAla = NCCC(=O)O

Assays:
[1] = biological target: Rat IL-23R_huFC (rat); assay: rat ELISA vs IL-23
[2] = biological target: T1, IL23R_huFC (human, UniProt Q5VWK5 24-353); assay: human ELISA vs IL-23
T1 sequence (looked up): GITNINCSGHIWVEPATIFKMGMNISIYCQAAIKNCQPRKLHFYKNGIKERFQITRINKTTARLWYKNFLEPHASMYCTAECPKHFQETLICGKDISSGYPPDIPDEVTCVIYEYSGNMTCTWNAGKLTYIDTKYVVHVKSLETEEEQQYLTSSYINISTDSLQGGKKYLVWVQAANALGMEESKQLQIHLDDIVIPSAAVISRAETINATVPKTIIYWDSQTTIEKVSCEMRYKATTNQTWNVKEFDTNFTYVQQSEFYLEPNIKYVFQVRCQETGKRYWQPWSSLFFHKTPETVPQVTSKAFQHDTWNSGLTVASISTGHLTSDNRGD

[3] = biological target: T2, IL-23R on human cells (IL-23R-expressing DB cells; human NK cells) (human, UniProt Q5VWK5 24-629); assay: cell-based or functional assay
T2 sequence (looked up): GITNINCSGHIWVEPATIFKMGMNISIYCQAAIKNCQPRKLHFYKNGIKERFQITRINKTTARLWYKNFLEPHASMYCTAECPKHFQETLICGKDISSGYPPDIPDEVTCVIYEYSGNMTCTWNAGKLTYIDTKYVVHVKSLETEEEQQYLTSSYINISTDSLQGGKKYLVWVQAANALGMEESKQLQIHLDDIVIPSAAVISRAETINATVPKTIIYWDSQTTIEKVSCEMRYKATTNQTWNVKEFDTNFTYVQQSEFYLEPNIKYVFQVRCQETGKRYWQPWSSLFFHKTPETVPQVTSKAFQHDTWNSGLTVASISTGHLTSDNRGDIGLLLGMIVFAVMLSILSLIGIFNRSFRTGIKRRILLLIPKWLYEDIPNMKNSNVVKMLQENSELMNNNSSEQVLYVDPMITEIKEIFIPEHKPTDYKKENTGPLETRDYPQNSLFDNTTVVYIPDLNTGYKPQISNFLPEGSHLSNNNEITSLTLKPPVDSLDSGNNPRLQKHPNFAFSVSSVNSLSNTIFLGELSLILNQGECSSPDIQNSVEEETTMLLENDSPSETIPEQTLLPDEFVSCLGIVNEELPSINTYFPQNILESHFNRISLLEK

[4] = biological target: T2, IL-23R on human cells …; assay: cell-based or functional assay; remark: listed apart in the source
[5] = biological target: T3, Rat IL-23R_huFC (rat; human, UniProt F1LX96 39-369); assay: rat IL-23R competitive ELISA
T3 sequence: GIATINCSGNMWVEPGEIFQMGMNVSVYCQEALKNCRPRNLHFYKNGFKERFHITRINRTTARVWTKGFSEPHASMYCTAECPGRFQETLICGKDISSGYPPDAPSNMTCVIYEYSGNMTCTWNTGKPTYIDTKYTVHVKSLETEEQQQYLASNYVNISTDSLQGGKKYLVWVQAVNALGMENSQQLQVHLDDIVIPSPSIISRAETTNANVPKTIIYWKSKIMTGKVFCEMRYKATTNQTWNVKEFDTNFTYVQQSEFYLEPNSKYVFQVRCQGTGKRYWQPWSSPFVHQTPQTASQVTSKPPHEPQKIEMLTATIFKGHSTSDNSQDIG

[6] = biological target: T1, IL23R_huFC; assay: human ELISA vs IL-23; remark: listed apart in the source
[7] = biological target: Rat IL-23R_huFC (rat); assay: rat ELISA vs IL-23; remark: listed apart in the source
[8] = biological target: Rat IL-23R_huFC (rat); assay: rat ELISA vs IL-23; remark: listed apart in the source
[9] = biological target: T1, IL23R_huFC; assay: human ELISA vs IL-23; remark: listed apart in the source
[10] = biological target: T4, IL-23R on DB cells (human, UniProt Q5VWK5 24-629); assay: cell-based or functional assay
T4 sequence (looked up): T2 sequence (looked up)

Q: What does the source list for Ac-[Abu]QTWQC[AEF][2Nal][αMeK]ENQ-NH2 (thioether 1-6) [Ac-Cyclo-[[Abu]-QTWQC]-[Phe[4-(2-aminoethoxy)]]-[2-Nal]-[α-MeLys]-ENQ-NH2]?
A: IC50 [1]: < 10 nM; IC50 [2]: < 10 nM; pStat3 HTRF IC50 [3]: < 10 nM; NK cell assay IC50 (IFNγ) [4]: < 25 nM

Q: Which IC50 [1] does the source give for Ac-[Abu]QTWQC[AEF][2Nal][αMeK]ENN-NH2 (thioether 1-6) [Ac-Cyclo-[[Abu]-QTWQC]-[Phe[4-(2-aminoethoxy)]]-[2-Nal]-[α-MeLys]-ENN-NH2] here?
A: < 10 nM

Q: And the IC50 [2]?
A: < 10 nM

Q: And the “pStat3 HTRF IC50” value [3]?
A: < 10 nM

Q: And the “NK cell assay IC50 (IFNγ)” value [4]?
A: < 25 nM

Q: Which results are given for Ac-[Abu]QTWQC[AEF][2Nal][αMeV]K(Ac)NG-NH2 (thioether 1-6) [Ac-Cyclo-[[Abu]-QTWQC]-[Phe[4-(2-aminoethoxy)]]-[2-Nal]-α-MeVal]-[Lys(Ac)]-NG-NH2]?
A: IC50 [1]: < 10 nM; IC50 [2]: < 10 nM; pStat3 HTRF IC50 [3]: < 10 nM; NK cell assay IC50 (IFNγ) [4]: < 25 nM

Q: With CXTWQCYWRVFGXK (Ac-; [Cit]; [AEA]; [(D)Lys]; -NH2) [Ac-C-[Cit]-TWQCYWRVFG-[AEA]-[(D)Lys]-NH2] as the binder, how does the IC50 [5] read?
A: 76 nM

Q: With Ac-CADWVCYWRKFG[βAla][dK]-NH2 (cysteine pairing not given here) [Ac-CADWVCYWRKFG-[βAla]-[(D)Lys]-NH2] as the binder, how does the IC50 [5] read?
A: 33 nM

Q: Which IC50 [6] does the source give for Ac-[Abu]QTWQC[Phe(4-OMe)(3)][Tyr(3-tBu)][αMeK]ENG-NH2 (thioether 1-6) [Ac-Cyclo-[[Abu]-QTWQC]-[Phe(4-OMe)]-[Tyr(3-tBu)]-[α-MeLys]-ENG-NH2] here?
A: 25 to 100 nM

Q: And the IC50 [7]?
A: 100 to 1000 nM

Q: With Ac-[Abu]QTWQC[AEF][Phe(3,4-(OMe)2)][αMeK]K(Ac)NG-NH2 (thioether 1-6) [Ac-Cyclo-[[Abu]-QTWQC]-[Phe[4-(2-aminoethoxy)]]-[Phe(3,4-OMe2]-[α-MeLys]-[Lys(Ac)]-NG-NH2] as the binder, how does the “pStat3 HTRF IC50” value [3] read?
A: < 10 nM

Q: And the “NK cell assay IC50 (IFNγ)” value [4]?
A: < 25 nM

Q: What about the IC50 [8] of the same binder?
A: 25 to 100 nM

Q: And the IC50 [9]?
A: 10 to 25 nM

B1: [Ac-[Pen]-NTWQ-[Pen]-[Phe(4-OMe)]-[2-Nal]-[Aib]-KNN-NH2]2DIG (peptide)
peptide: XNTWQXFXXKNN
modifications: Ac; Pen-Pen disulfide; Phe(4-OMe); 2-Nal; Aib; NH2; DIG linker joins the two subunits
Q: For B1, which “pStat3 HTRF IC50” value [10] is on record?
A: < 10 nM

Q: Which IC50 [7] does the source give for Ac-CRTWQ[Abu]YWRKFG[AEA][dK]-NH2 (thioether 1-6) [Ac-Cyclo-[CRTWQ-[Abu]]-YWRKFG-[AEA]-[(D)Lys]-NH2] here?
A: 100 to 1000 nM

Q: With Ac-[Abu]QTWQC[AEF][2Nal][αMeL][Cit]NN-NH2 (thioether 1-6) [Ac-Cyclo-[[Abu]-QTWQC]-[Phe[4-(2-aminoethoxy)]]-[2-Nal]-[α-MeLeu)-[Cit]-NN-NH2] as the binder, how does the IC50 [1] read?
A: < 10 nM

Q: And the IC50 [2]?
A: < 10 nM

Q: What about the “pStat3 HTRF IC50” value [3] of the same binder?
A: < 10 nM

Q: What about the “NK cell assay IC50 (IFNγ)” value [4] of the same binder?
A: < 25 nM

Q: For Ac-CQTWQCYWRVFG[AEA][dK]-NH2 (disulfide 1-6 (inferred)) [Ac-CQTWQCYWRVFG-[AEA]-[(D)Lys]-NH2], which IC50 [5] is on record?
A: 62 nM

Q: For CRTWQCYWRVFGXK (not fully specified; Ac-; [N-MeArg]; [AEA]; [(D)Lys]; -NH2) [Ac-C-[N-MeArg]-TWQCYWRVFG-[AEA]-[(D)Lys]-NH2], which IC50 [5] is on record?
A: 192 nM

Q: For Ac-CRTWQCYWRENGA[dK]-NH2 (cysteine pairing not given here) [Ac-CRTWQCYWRENGA-[(D)Lys]-NH2], which IC50 [5] is on record?
A: 86 nM

Q: How did the IC50 [5] turn out when Ac-CRTWQCYWREYGA[dK]-NH2 (cysteine pairing not given here) [Ac-CRTWQCYWREYGA-[(D)Lys]-NH2] was run?
A: 80 nM

Q: With CXTWQCYWRVFGXK (Ac-; [AEA]; [(D)Lys]; -NH2) [Ac-C-CYWRVFG-[AEA]-[(D)Lys]-NH2] as the binder, how does the IC50 [5] read?
A: 51 nM

Q: With XQTWQXFXKKNG (as bracketed in name; thioether cyclo) [Ac-Cyclo-[[Abu]-QTWQ-[Pen]]-[Phe(4-OMe)]-[2-Nal][α-MeLys]-[Lys(Ac)]NG-NH2] as the binder, how does the IC50 [7] read?
A: 100 to 1000 nM

B2: [Ac-[Pen]-NTWQ-[Pen]-[Phe(4-CONH2)]-[2-Nal]-[α-MeLeu]-KNN-NH2]2DIG (peptide)
peptide: XNTWQXFXLKNN
modifications: Ac; Pen-Pen disulfide; Phe(4-CONH2); 2-Nal; α-MeLeu; NH2; DIG linker joins the two subunits
Q: With B2 as the binder, how does the “pStat3 HTRF IC50” value [10] read?
A: < 10 nM

Q: With Ac-CADWVCY[1Nal][Cit]VFG[βAla][dK]-NH2 (disulfide 1-6 (inferred)) [Ac-CADWVCY-[1-Nal]-[Cit]-VFG-[β-Ala]-[(D)Lys]-NH2] as the binder, how does the IC50 [5] read?
A: 22 nM
